# Test results taken from patent EP4541822A2 (Tsinghua University, dated 2025).
# B1: recombinant protein (PRMH)5-CNB (other)
# chain: MKHHHHHHHENLYFQGHMKGGSWGGSKKTPPPVPPRTTSKGGSGGSGGSGGSKKTPPPVPPRTTSKGGSGGSGGSGGSKKTPPPVPPRTTSKGGSGGSGGSGGSKKTPPPVPPRTTSKGGSGGSGGSGGSKKTPPPVPPRTTSKGGSGSKNLYFQGGSGGSGGSGGSMEVQLMESGGGLVQAGGSLRLSCAASGRTFNNYAMGWFRRAPKGEREFVAAITRSGVRSGVSAIYGDSVKDRFTISRDNAKNTLYLQMNSLKPEDTAVYTCAASAIGSGALRRFEYDYSGQGTQVTVSS
# notes: The entry also holds a 7xHis tag and TEV site; Labelled with Alexa594; also called (PRMH)5-CNB (Red)
# B2: recombinant protein (SH3)5-DNB (other)
# chain: MKHHHHHHHENLYFQGHMDLNMPAYVKFNYMAEREDELSLIKGTKVIVMEKSSDGWWRGSYNGQVGWFPSNYVTEEGDSPLASGAGGSEGGGSEGGTSGATDLNMPAYVKFNYMAEREDELSLIKGTKVIVMEKSSDGWWRGSYNGQVGWFPSNYVTEEGDSPLASGAGGSEGGGSEGGTSGATHMDLNMPAYVKFNYMAEREDELSLIKGTKVIVMEKSSDGWWRGSYNGQVGWFPSNYVTEEGDSPLASGAGGSEGGGSEGGTSGATDLNMPAYVKFNYMAEREDELSLIKGTKVIVMEKSSDGWWRGSYNGQVGWFPSNYVTEEGDSPLASGAGGSEGGGSEGGTSGATDLNMPAYVKFNYMAEREDELSLIKGTKVIVMEKSSDGWWRGSYNGQVGWFPSNYVTEEGDSPLGGSGGSGGSGGSMEVQLLESGGGLVQPGGSLRLSCAASGTFDKINNMGWYRQAPGKQRDLVAQITPGGITDYADSVKGRFTISRDNSKNTLYLQMNSLRPEDTAVYYCNAEILKRAYIDVYVNYWGQGTLVTVSS
# B3: recombinant protein (SIM)6-R4L (other)
# chain: MKHHHHHHHENLYFQGAMSSKVDVIDLTIESSSDEEEDPPAKRGGSGGSGGSGGSKVDVIDLTIESSSDEEEDPPAKRGGSGGSGGSGGSKVDVIDLTIESSSDEEEDPPAKRGAMKGGSGGSGGSGGSMSSKVDVIDLTIESSSDEEEDPPAKRGGSVGSGGSGGSKVDVIDLTIESSSDEEEDPPAKRGGSGGSGGRGGSKVDVIDLTIESSSDEEEDPPAKRGAMRCWGGSGGSGGSGGSMGMCYRKCRGGRRWCYQKCGGSGGSGGSGGS
# notes: also called (SIM)6-R4L (Red)
# B4: recombinant protein (SIM)3-CNB (other)
# chain: MKHHHHHHHENLYFQGAMKVDVIDLTIESSSDEEEDPPAKRGGSGGSGGSGGSMMKVDVIDLTIESSSDEEEDPPAKRGGSGGSGGSGGSMMKVDVIDLTIESSSDEEEDPPAKRGGSGGSGGSGGSMGEVQLMESGGGLVQAGGSLRLSCAASGRTFNNYAMGWFRRAPKGEREFVAAITRSGVRSGVSAIYGDSVKDRFTISRDNAKNTLYLQMNSLKPEDTAVYTCAASAIGSGALRRFEYDYSGQGTQVTVSS
# notes: The entry also holds a 7xHis tag and TEV site; Red-labelled for imaging; also called (SIM)3-CNB (Red)
# B5: recombinant protein (SIM)6-CNB (other)
# chain: MKHHHHHHHENLYFQGAMSSKVDVIDLTIESSSDEEEDPPAKRGGSGGSGGSGGSKVDVIDLTIESSSDEEEDPPAKRGGSGGSGGSGGSKVDVIDLTIESSSDEEEDPPAKRGAMKGGSGGSGGSGGSMSSKVDVIDLTIESSSDEEEDPPAKRGGSVGSGGSGGSKVDVIDLTIESSSDEEEDPPAKRGGSGGSGGRGGSKVDVIDLTIESSSDEEEDPPAKRGAMRCWGGSGGSGGSGGSMGEVQLMESGGGLVQAGGSLRLSCAASGRTFNNYAMGWFRRAPKGEREFVAAITRSGVRSGVSAIYGDSVKDRFTISRDNAKNTLYLQMNSLKPEDTAVYTCAASAIGSGALRRFEYDYSGQGTQVTVSS
# notes: The entry also holds a 7xHis tag and TEV site; Labelled with Alexa594 for imaging; also called (SIM)6-CNB (Red)
# Experiments:
# [1] = target: B2; assay: confocal imaging of SJSA-1 cells, 100 nM each (Fig. 9A)
# death receptor 5 (DR5) = death receptor 5 (DR5) (human, UniProt O14763 56-440); assay: cell-based or functional assay
# [2] = target: T1, multivalent domain (SUM)5; assay: confocal imaging of SJSA-1 cells, (SIM)6-R4L (Red) plus (SUM)5 (Green), 100 nM each (Fig. 2A)
# T1 construct: Labelled with Alexa647 for imaging; also called (SUM)5 (Green)
# T1 sequence (chain, as listed by the source): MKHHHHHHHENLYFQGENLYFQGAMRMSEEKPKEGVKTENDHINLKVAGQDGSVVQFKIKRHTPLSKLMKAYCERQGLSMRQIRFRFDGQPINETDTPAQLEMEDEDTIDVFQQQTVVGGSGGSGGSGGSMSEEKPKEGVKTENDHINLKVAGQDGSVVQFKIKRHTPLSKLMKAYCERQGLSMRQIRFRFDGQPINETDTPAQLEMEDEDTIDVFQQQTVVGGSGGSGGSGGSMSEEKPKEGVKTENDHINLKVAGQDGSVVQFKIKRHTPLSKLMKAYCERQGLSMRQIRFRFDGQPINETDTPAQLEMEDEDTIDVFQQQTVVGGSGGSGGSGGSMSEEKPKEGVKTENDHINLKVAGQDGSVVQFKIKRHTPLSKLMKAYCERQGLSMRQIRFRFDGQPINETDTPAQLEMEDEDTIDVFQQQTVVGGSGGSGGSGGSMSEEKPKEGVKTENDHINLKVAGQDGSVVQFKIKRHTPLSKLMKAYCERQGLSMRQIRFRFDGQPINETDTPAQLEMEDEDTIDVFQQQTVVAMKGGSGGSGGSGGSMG
# [3] = target: T2, CXC motif chemokine receptor 4 (CXCR4) (human, UniProt P61073 1-352); assay: confocal imaging of SJSA-1 cells; membrane puncta with the ligand fusions, none with the multivalent domains alone
# T2 construct: whole, on cells; Endogenous receptor on human tumour cell lines; also called chemokine receptor CXCR4
# T2 sequence (P61073 whole entry, the tested form may be a part): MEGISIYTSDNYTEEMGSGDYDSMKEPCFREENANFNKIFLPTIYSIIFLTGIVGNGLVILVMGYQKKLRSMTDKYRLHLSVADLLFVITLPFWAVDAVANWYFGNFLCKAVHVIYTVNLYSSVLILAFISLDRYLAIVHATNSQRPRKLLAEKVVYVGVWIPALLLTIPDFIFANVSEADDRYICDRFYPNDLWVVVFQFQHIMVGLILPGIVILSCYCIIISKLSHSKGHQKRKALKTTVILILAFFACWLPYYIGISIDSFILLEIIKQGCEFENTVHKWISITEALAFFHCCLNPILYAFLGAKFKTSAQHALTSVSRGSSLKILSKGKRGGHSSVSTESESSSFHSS
# [4] = target: T3, recombinant protein (SUM)3-DNB; assay: fluorescence imaging of SJSA-1 cells (Figs. 5A, 5B)
# T3 construct: The entry also holds a 7xHis tag and TEV site; Green-labelled for imaging; unlabelled in the apoptosis assays; also called (SUM)3-DNB (Green)
# [5] = target: T2, CXC motif chemokine receptor 4 (CXCR4); assay: fluorescence imaging of SJSA-1 cells with anti-CXCR4 immunostaining (Figs. 5A, 5B)
# [6] = target: T2, CXC motif chemokine receptor 4 (CXCR4); assay: fluorescence imaging of SJSA-1 cells with anti-CXCR4 immunostaining (Figs. 3A, 3B)
# [7] = target: T4, recombinant protein (SUM)5-DNB; assay: fluorescence imaging of SJSA-1 cells, 100 nM (Figs. 3A, 3B)
# T4 construct: The entry also holds a 7xHis tag and TEV site; Labelled with Alexa647 for imaging; also called (SUM)5-DNB (Green)
binder,measurement,setting,value
B1,binding result,[1],binds
B2,"apoptotic ratio of SJSA-1 cells, Annexin V-FITC/PI flow cytometry, 4 h; (SH3)5-DNB (Green) added together with (PRMH)5-CNB (Red) at 100 nM",death receptor 5 (DR5),~58.4%
B3,binding result,[2],binds
same,binding result,[3],binds
B4,binding result,[4],binds
same,binding result,[5],binds
B5,binding result,[6],binds
same,binding result,[7],binds
